Test results as given in publication PMC9482650, “Quantitative fragmentomics allow affinity mapping of interactomes” (Nature Communications, 2022).

Experiments:
Assay in all cases: holdup assay
Set-up in all cases: key: below the threshold = too weak to quantify, mostly under pKd 3.1 to 4
Details in all cases: plain residues with an end cap or a label only (N-terminal biotin on a linker: ado-ado)
[1] = molecular target: T1, CARD11, Q9BXL7
T1 sequence (Q9BXL7 662-765, limits assumed, looked up): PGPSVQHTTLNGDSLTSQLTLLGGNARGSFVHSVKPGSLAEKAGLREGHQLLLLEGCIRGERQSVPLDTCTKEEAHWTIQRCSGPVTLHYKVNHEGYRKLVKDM

[2] = molecular target: GRIP2_6, Q9C0E4
GRIP2_6, Q9C0E4, sequence (Q9C0E4 648-740): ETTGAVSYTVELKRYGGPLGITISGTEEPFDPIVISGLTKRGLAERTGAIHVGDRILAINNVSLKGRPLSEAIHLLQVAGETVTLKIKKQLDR

[3] = molecular target: T2, FRMPD1, Q5SYB0
T2 sequence (Q5SYB0 52-145, limits assumed, looked up): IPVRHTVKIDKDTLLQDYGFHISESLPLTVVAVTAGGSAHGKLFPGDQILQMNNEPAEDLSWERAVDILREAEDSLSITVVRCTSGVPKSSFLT

[4] = molecular target: DLG5_1, Q8TDM6
DLG5_1, Q8TDM6, sequence (Q8TDM6 617-713): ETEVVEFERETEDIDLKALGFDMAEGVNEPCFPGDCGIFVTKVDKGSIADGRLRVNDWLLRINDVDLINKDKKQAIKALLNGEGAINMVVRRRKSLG

[5] = molecular target: GORASP1, Q9BQQ3
GORASP1, Q9BQQ3, sequence (Q9BQQ3 1-208): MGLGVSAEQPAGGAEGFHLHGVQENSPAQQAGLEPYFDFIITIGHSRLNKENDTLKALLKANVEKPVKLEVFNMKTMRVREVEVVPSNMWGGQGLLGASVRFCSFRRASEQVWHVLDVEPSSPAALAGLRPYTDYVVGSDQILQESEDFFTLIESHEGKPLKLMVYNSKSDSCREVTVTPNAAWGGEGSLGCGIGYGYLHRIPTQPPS

[6] = molecular target: T3, GRIP1_4, Q9Y3R0
T3 sequence (Q9Y3R0 467-571, limits assumed, looked up): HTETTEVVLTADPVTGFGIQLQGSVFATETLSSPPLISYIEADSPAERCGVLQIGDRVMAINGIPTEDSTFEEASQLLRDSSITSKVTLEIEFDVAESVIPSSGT

[7] = molecular target: GRID2IP_2, A4D2P6
GRID2IP_2, A4D2P6, sequence (A4D2P6 272-370): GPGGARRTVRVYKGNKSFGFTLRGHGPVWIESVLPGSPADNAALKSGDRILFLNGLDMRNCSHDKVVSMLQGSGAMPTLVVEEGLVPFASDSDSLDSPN

[8] = molecular target: Inadl_3, Q8NI35
Inadl_3, Q8NI35, sequence (Q8NI35 359-469): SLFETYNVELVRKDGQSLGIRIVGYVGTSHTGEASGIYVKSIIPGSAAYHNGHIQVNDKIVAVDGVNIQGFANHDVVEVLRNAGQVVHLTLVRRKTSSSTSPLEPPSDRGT

[9] = molecular target: LIMK2, P53671
LIMK2, P53671, sequence (P53671 143-248): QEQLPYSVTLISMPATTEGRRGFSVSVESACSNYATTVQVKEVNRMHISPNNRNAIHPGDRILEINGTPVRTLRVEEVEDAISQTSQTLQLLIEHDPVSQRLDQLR

[10] = molecular target: T4, PTPN13_1, Q12923
T4 sequence (Q12923 1088-1188, limits assumed, looked up): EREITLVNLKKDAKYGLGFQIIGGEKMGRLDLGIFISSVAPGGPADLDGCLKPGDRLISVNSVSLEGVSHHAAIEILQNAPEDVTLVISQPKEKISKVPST

[11] = molecular target: T5, LNX2_2, Q8N448
T5 sequence (Q8N448 334-432, limits assumed, looked up): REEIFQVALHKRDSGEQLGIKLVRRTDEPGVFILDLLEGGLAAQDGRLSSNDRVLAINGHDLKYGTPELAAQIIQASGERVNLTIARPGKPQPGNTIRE

[12] = molecular target: T6, PDZRN3_1, Q9UPQ7
T6 sequence (Q9UPQ7 244-349, limits assumed, looked up): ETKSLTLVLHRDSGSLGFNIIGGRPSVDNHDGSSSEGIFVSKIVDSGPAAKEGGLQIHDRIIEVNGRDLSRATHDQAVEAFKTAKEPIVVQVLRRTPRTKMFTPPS

[13] = molecular target: GRIP2_3, Q9C0E4
GRIP2_3, Q9C0E4, sequence (Q9C0E4 238-339): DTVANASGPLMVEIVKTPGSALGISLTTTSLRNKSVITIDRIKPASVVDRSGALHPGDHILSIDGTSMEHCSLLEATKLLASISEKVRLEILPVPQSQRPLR

[14] = molecular target: T7, PDZD2_2, O15018
T7 sequence (O15018 329-429, limits assumed, looked up): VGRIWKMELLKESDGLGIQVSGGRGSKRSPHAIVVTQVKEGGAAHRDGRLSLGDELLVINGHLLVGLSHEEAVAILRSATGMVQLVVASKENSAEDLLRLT

[15] = molecular target: T8, HTRA4, P83105
T8 sequence (P83105 378-476, limits assumed, looked up): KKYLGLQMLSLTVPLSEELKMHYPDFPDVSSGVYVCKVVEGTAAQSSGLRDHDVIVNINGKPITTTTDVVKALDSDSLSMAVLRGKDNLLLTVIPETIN

[16] = molecular target: T9, LNX2_3, Q8N448
T9 sequence (Q8N448 463-564, limits assumed, looked up): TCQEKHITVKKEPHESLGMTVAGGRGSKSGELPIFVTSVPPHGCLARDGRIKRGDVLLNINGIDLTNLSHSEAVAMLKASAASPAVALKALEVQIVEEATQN

[17] = molecular target: MAGI2_5, Q86UL8
MAGI2_5, Q86UL8, sequence (Q86UL8 915-1017): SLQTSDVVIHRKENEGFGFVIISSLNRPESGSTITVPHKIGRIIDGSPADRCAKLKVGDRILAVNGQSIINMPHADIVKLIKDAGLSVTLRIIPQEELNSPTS

[18] = molecular target: T10, DVL3, Q92997
T10 sequence (Q92997 244-331, limits assumed, looked up): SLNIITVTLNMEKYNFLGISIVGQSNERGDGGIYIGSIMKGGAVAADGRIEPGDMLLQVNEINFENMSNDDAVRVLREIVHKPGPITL

[19] = molecular target: NHERF4_2, Q86UT5
NHERF4_2, Q86UT5, sequence (Q86UT5 220-308): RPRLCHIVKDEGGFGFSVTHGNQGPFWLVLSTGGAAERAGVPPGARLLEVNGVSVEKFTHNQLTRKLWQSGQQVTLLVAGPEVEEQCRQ

[20] = molecular target: NOS1, P29475
NOS1, P29475, sequence (P29475 9-101): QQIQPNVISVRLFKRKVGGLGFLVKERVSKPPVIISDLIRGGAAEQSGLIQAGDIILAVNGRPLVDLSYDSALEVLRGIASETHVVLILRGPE

[21] = molecular target: SNX27, Q96L92
[22] = molecular target: T11, RAPGEF6, Q8TEU7
T11 sequence (Q8TEU7 525-625, limits assumed, looked up): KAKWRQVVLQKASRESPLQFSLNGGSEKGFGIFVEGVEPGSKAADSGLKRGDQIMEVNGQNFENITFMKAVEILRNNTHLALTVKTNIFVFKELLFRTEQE

[23] = molecular target: T12, ARHGEF11, O15085
T12 sequence (O15085 42-136, limits assumed, looked up): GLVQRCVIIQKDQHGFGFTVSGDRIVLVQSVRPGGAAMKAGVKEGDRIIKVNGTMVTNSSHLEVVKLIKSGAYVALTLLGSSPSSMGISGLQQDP

[24] = molecular target: PARD3_3, Q8TEW0
PARD3_3, Q8TEW0, sequence (Q8TEW0 582-685): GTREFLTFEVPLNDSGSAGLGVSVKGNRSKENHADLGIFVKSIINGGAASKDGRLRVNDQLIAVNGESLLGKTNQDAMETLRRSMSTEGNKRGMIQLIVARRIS

[25] = molecular target: MAGI1_2, Q96QZ7
MAGI1_2, Q96QZ7, sequence (Q96QZ7 456-580): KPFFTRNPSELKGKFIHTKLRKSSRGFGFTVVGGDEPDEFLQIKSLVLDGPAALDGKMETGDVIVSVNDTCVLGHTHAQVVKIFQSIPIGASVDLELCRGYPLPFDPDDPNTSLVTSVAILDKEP

[26] = molecular target: LNX1_3, Q8TBB1
LNX1_3, Q8TBB1, sequence (Q8TBB1 500-596): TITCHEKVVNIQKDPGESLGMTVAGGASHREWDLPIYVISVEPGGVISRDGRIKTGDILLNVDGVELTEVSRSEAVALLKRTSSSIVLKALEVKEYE

B1: TECPR2, O15040 (peptide)
chain: EDLEDEWEVI
Q: What does the source list for B1?
A: pKd [1]: below the threshold; pKd [2]: below the threshold; pKd [3]: below the threshold; pKd [4]: below the threshold; pKd [5]: 4.12; pKd [6]: below the threshold; pKd [7]: below the threshold; pKd [8]: 4.33; pKd [9]: below the threshold; pKd [10]: below the threshold; pKd [11]: 4.18; pKd [12]: below the threshold; pKd [13]: below the threshold; pKd [14]: 3.84; pKd [15]: below the threshold; pKd [16]: below the threshold; pKd [17]: below the threshold; pKd [18]: below the threshold; pKd [19]: below the threshold; pKd [20]: below the threshold; pKd [21]: below the threshold; pKd [22]: below the threshold; pKd [23]: below the threshold; pKd [24]: 5.6; pKd [25]: below the threshold; pKd [26]: below the threshold
